We go through one molecule from article PMC4908242, “Functional Characterization of a Small-Molecule Inhibitor of the DKK1-LRP6 Interaction” (ISRN Molecular Biology, 2012).

Assay [1] concerns the target T1, Full-length human LRP6-Fc tagged (R&D Systems) (human, UniProt O75581 20-1613). The assay can be described thus: SPR; Biacore T100. LRP6-Fc immobilised by amine coupling on a CM3 chip (3000 RU); DKK1 3-54 nM injected for 180 sec; HBS-EP+ pH 7.4, 25°C; apparent KD calculated as kd/ka. As to conditions: both partners purified.
Assay [2] addresses T1, Full-length human LRP6-Fc tagged (R&D …). As to the kind of experiment: SPR; Biacore T100. LRP6-Fc (0.5 μg/mL) captured on Protein A that was amine-coupled to a CM3 chip; DKK1 3-54 nM injected; HBS-EP+ pH 7.4, 25°C; apparent KD. To be noted: both partners purified. A general note: In SPR one partner is held on a chip, and binding of the other changes the refractive index at the surface.

T1 sequence (O75581 20-1613): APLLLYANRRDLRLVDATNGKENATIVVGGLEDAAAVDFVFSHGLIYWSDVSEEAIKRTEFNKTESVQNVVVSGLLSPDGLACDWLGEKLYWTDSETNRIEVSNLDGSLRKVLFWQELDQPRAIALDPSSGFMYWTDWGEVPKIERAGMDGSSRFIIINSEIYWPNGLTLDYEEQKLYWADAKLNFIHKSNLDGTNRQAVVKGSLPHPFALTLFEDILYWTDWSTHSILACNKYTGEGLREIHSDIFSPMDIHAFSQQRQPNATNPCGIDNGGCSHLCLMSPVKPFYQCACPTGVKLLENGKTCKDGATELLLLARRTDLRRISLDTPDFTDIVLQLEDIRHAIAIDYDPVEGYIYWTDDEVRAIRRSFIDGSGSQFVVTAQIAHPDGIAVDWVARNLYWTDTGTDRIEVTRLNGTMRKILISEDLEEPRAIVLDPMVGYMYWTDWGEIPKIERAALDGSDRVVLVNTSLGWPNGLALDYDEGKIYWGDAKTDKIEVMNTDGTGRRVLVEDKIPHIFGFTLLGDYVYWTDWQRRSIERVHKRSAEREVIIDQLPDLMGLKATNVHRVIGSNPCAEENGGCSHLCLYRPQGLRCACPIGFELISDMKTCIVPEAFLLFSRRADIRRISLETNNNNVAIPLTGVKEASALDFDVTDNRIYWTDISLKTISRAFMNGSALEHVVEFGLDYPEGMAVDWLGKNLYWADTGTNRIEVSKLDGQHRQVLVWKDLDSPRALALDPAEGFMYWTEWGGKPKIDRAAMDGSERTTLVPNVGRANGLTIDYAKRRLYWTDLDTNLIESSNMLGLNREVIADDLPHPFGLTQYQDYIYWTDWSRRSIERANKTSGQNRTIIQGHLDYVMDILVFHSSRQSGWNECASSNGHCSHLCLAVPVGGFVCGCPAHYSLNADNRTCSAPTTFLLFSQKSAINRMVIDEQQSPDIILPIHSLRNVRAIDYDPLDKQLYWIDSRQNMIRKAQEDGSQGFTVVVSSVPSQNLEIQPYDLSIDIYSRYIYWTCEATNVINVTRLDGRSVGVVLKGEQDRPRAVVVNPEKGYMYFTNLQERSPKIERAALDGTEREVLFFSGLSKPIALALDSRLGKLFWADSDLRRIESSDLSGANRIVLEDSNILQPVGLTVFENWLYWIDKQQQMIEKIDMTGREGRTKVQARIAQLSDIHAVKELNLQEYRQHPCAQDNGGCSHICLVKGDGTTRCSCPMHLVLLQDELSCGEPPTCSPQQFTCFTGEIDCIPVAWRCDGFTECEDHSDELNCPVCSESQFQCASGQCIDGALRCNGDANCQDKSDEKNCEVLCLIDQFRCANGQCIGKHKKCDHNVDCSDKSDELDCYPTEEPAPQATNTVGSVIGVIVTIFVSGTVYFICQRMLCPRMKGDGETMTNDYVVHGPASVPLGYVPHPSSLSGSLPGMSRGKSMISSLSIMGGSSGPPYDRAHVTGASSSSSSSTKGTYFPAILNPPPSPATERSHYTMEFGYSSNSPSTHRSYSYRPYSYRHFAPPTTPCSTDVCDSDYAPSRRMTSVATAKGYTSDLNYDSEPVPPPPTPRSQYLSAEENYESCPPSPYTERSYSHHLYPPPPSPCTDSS

B1: Commercial purified recombinant human DKK1 (ligand, UniProt O94907 32-266, looked up)
chain: TLNSVLNSNAIKNLPPPLGGAAGHPGSAVSAAPGILYPGGNKYQTIDNYQPYPCAEDEECGTDEYCASPTRGGDAGVQICLACRKRRKRCMRHAMCCPGNYCKNGICVSSDQNHFRGEIEETITESFGNDHSTLDGYSRRTTLSSKMYHTKGQEGSVCLRSSDCASGLCCARHFWSKICKPVLKEGQVCTKHRRKGSHGLEIFQRCYCGEGLSCRIQKDHHQASNSSRLHTCQRH
notes: Dickkopf 1 (DKK1), human, commercial recombinant protein; Neither catalogue number nor construct limits are printed; also called Dickkopf 1; commercial recombinant DKK1; source: bought: R&D Systems, purified recombinant
Regarding B1, in assay [1], the Kd is 0.349 nM; the off-rate constant (koff) (as a rule, the first-order rate constant of dissociation) is 0.00183 s⁻¹; the kon – broadly, a measure of how fast the partners come together – was 5.26e+06 M⁻¹ s⁻¹. Besides, the Kd in assay [2] came out at 0.84 nM.
